Results published in paper doi:10.1101/2022.09.01.506182 (bioRxiv, 2022).
Values belong to the binder of their own block, whether it stands above or below them.

How the values were obtained:
[1] = target: T1, endogenous LGR5 of human cancer cell lines (human (endogenous in NALM6, REH, 697, LoVo)) (UniProt O75473)
T1 sequence: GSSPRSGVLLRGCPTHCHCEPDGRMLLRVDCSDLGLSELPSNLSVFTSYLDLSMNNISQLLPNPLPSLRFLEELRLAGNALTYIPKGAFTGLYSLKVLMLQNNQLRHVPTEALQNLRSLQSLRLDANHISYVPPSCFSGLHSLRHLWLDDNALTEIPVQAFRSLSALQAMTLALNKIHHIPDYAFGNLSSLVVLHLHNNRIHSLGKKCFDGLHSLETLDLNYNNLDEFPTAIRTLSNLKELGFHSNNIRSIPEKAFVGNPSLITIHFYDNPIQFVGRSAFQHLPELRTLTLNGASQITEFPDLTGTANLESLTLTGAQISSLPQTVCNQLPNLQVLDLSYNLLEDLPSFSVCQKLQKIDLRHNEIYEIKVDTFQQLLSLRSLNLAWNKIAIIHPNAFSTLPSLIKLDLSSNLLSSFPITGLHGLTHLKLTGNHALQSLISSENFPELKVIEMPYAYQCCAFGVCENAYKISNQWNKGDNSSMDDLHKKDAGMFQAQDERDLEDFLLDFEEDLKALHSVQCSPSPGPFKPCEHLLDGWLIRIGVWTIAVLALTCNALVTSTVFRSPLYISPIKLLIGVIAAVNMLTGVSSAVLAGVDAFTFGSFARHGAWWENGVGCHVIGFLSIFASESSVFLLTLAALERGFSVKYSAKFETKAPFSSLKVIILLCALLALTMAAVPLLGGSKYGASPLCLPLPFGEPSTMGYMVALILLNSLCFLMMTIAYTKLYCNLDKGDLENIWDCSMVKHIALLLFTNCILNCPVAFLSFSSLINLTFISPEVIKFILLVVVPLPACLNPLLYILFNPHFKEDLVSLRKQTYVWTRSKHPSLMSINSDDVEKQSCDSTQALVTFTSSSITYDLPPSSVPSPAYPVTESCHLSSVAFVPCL

[2] = target: T1, endogenous LGR5 of human cancer cell lines (human (endogenous in NALM6, REH, 697, LoVo)); remark: listed apart in the source
[3] = target: T2, RAD-displayed Fragment 1A of human LGR5 (Homo sapiens, UniProt O75473); experiment: BLI
T2 chain: GSSPRSGVLLRGCPT

[4] = target: T3, endogenous LGR5 of human cancer cell lines (Homo sapiens, UniProt O75473); experiment: flow cytometry on cells
[5] = target: human LGR4 transgene with N-terminal HA tag, V2 receptor tail and eGFP (Homo sapiens, UniProt Q9BXB1); experiment: flow cytometry on cells
Chain of human LGR4 transgene with N-terminal HA tag, V2 receptor tail and eGFP (Q9BXB1 25-951): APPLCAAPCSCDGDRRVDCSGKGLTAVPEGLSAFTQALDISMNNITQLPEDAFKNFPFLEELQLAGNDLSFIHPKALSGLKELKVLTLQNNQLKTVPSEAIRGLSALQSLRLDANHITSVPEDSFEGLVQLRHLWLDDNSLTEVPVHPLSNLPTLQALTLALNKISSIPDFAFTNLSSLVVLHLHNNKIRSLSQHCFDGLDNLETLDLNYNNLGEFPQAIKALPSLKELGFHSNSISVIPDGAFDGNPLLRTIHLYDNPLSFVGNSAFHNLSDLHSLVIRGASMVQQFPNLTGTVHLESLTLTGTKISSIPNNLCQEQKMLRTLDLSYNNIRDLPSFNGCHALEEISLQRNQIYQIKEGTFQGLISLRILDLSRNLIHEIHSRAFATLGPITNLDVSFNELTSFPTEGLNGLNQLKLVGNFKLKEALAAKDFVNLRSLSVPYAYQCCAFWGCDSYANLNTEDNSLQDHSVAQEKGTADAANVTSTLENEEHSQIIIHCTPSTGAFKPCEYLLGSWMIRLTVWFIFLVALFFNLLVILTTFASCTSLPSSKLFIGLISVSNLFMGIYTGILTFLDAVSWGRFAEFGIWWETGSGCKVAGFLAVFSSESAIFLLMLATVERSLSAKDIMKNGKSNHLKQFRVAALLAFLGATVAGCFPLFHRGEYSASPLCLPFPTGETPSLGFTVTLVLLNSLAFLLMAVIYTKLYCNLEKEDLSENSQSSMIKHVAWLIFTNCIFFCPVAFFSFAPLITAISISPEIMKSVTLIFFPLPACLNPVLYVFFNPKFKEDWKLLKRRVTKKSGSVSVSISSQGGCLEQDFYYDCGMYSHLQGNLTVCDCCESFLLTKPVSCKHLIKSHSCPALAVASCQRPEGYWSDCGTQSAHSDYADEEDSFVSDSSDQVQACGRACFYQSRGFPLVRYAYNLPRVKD

[6] = target: murine LGR5 transgene with N-terminal HA tag, V2 receptor tail and eGFP (Mus musculus, UniProt Q9Z1P4); experiment: flow cytometry on cells
Chain of murine LGR5 transgene with N-terminal HA tag, V2 receptor tail and eGFP (Q9Z1P4 22-907): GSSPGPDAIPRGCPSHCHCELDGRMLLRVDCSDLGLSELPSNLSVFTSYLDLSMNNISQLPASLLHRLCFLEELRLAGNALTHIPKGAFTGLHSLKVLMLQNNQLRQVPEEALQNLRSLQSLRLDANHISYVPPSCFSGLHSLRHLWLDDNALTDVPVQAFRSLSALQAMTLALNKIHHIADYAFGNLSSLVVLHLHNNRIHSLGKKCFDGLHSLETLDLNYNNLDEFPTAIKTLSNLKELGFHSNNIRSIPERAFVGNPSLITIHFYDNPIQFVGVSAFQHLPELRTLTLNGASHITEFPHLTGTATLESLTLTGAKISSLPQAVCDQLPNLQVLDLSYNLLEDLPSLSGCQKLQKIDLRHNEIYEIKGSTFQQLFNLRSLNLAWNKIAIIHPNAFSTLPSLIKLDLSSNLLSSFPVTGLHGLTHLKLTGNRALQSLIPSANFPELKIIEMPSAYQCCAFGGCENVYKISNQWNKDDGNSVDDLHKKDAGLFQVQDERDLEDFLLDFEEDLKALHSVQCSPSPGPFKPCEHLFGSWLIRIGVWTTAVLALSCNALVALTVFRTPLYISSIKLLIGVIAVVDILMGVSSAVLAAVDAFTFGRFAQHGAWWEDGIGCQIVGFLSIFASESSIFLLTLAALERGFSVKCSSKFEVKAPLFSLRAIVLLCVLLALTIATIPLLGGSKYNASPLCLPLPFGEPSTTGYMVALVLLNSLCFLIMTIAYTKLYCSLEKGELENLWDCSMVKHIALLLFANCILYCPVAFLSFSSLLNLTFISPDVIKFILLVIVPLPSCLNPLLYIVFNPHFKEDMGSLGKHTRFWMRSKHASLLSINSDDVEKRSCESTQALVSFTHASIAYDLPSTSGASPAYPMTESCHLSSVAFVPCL

[7] = target: T2, RAD-displayed Fragment 1A of human LGR5; experiment: immunostaining of cells or tissue
[8] = target: T2, RAD-displayed Fragment 1A of human LGR5; experiment: western blot
[9] = target: T3, endogenous LGR5 of human cancer cell …; experiment: western blot

B4: α-LGR5 hybridoma clone 3 (antibody, V domains shown)
VH: QVQLQQPGAELVKPGASVKLSCKASGYTFTSYWMQWVKQRPGQGLEWIGEIDPSDSYSNYNQKFKGKATLTVDTSSSTAYMQLSSLTSEDSAVYYCARSLSGYVDYWGQGTTLTVSS
VL: DIQMTQTTSSLSASLGDRVTISCRASQDISNRLNWYQQKPDGTVKLLISYRSRLQSGVPSRFSGSGSGTDYSLTISNLEEEDIATYFCQQGNTLPPTFGGGTKLEVR
binding result [8]: binds

B5: α-LGR5 hybridoma clone 2 (antibody, V domains shown)
VH: QVQLQQPGAELVKPGASVKLSCKASGYTFTNYWMQWVKQRPGQGLEWIGEIDPSDSYTNYNQKFKGKATLTVDTSSSTAYMQLSSLTSEDSAVYYCARSLSGYVDYWGQGTTLTVSS
VL: DIQMTQTTSSLSASLGDRVTISCRASQDISNRLNWYQQKPDGTVKLLISYRSRLHSGVPSRFSGSGSGTDYSLTISNLEQEDIATYFCQQGNSLPPTFGGGTKLEVR
binding result [8]: binds | binding result [9]: binds

B6: α-LGR5 hybridoma clone 1 (antibody, V domains shown)
VH: QVQLQQPGAELVKPGASVKLSCKASGYTFTSYWMQWVKQRPGQGLEWIGEIDPSDYYTNYNQKFKGKATLTVDTSSSTAYMQLSSLTSEDSAVYYCARSLSGYVDYWGQGTTLTVSS
VL: DIQMTQSTSSLSASLGDRVTINCRASQDIRNRLNWYQQKPDGTVKLLISYRSRLQSGVPSRFSGSGSGTEYSLTISNLEQEDIATYFCQQGNTLPPTFGGGTKLEVR
binding result [8]: binds

Continued, in another order:

binding result [3]: binds
B1: α-LGR5-ADC (murine clone 2 conjugated to MMAE, sulphatase cleavable linker) (antibody, V domains shown)
VH: QVQLQQPGAELVKPGASVKLSCKASGYTFTNYWMQWVKQRPGQGLEWIGEIDPSDSYTNYNQKFKGKATLTVDTSSSTAYMQLSSLTSEDSAVYYCARSLSGYVDYWGQGTTLTVSS
VL: DIQMTQTTSSLSASLGDRVTISCRASQDISNRLNWYQQKPDGTVKLLISYRSRLHSGVPSRFSGSGSGTDYSLTISNLEQEDIATYFCQQGNSLPPTFGGGTKLEVR
killing of NALM6 cells after three days of treatment (CellTiter-Glo), EC50 [1]: 4 nM | killing of REH cells after three days of treatment (CellTiter-Glo), EC50 [1]: 10 nM | killing of LoVo cells after three days of treatment (CellTiter-Glo), EC50 [2]: 9 nM

binding result [4]: binds | binding result [5]: no binding | binding result [6]: no binding | binding result [7]: binds
B2: murine α-LGR5 coupled to Dylight650 fluorophore (antibody, V domains shown)
VH: QVQLQQPGAELVKPGASVKLSCKASGYTFTNYWMQWVKQRPGQGLEWIGEIDPSDSYTNYNQKFKGKATLTVDTSSSTAYMQLSSLTSEDSAVYYCARSLSGYVDYWGQGTTLTVSS
VL: DIQMTQTTSSLSASLGDRVTISCRASQDISNRLNWYQQKPDGTVKLLISYRSRLHSGVPSRFSGSGSGTDYSLTISNLEQEDIATYFCQQGNSLPPTFGGGTKLEVR

binding result [8]: binds
B3: α-LGR5 hybridoma clone 4 (antibody, V domains shown)
VH: QVQLQQPGAELVKPGASVKLSCKASGYTFTDYWMQWVKQRPGQGLEWIGEIDPSDSYTNYNQKFQGKATLTVDTSSSTAYIQLSSLTSDDSAVYYCARSLSGSVDYWGQGTTLTVSS
VL: DIQMTQTTSSLSASLGDRVTISCRASQDISNRLNWYQQKPDGTVKLLISYRSRLQSGVPSRFSGSGSGTDYSLTITNLEQEDIATYFCQQGNTLPPTFGGGTKLEVR
